Laboratory results reported in patent US20240166767A1 (SCIRHOM, published 2024).
Changes are numbered by the printed parent chain.

T1: dog iRhom1 full length wild type, T7-tagged (dog, UniProt A0A8I3MHT7 11-866)
T1 construct: whole, on cells; also called Dog-iR1-FL-WT-T7; expressed by MEF-DKO-Dog-iR1-FL-WT-T7 cells
T1 sequence: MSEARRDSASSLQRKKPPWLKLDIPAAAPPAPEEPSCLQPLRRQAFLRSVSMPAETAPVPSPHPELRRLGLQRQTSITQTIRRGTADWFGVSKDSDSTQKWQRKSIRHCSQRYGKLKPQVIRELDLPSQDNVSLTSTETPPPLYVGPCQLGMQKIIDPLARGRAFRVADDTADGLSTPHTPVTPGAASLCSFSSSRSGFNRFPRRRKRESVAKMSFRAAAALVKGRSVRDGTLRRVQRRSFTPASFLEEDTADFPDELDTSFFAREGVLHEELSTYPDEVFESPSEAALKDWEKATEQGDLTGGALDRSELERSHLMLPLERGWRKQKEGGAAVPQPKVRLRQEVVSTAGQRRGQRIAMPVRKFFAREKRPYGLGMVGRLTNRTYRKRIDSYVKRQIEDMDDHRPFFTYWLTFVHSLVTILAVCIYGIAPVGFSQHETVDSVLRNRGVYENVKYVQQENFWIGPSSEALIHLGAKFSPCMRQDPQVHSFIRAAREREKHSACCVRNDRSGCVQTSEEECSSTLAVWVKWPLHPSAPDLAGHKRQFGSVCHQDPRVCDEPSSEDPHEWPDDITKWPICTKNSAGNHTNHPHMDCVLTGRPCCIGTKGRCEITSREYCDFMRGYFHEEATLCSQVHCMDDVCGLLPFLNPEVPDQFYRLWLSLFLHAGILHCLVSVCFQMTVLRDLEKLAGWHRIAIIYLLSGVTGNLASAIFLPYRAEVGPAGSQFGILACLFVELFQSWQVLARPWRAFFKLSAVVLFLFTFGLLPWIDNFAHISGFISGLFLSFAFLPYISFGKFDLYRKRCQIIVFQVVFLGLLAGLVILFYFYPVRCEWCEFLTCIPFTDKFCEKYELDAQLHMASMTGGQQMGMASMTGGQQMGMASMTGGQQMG

T2: endogenous human iRhom2 (human, UniProt Q6PJF5 1-856)
T2 sequence: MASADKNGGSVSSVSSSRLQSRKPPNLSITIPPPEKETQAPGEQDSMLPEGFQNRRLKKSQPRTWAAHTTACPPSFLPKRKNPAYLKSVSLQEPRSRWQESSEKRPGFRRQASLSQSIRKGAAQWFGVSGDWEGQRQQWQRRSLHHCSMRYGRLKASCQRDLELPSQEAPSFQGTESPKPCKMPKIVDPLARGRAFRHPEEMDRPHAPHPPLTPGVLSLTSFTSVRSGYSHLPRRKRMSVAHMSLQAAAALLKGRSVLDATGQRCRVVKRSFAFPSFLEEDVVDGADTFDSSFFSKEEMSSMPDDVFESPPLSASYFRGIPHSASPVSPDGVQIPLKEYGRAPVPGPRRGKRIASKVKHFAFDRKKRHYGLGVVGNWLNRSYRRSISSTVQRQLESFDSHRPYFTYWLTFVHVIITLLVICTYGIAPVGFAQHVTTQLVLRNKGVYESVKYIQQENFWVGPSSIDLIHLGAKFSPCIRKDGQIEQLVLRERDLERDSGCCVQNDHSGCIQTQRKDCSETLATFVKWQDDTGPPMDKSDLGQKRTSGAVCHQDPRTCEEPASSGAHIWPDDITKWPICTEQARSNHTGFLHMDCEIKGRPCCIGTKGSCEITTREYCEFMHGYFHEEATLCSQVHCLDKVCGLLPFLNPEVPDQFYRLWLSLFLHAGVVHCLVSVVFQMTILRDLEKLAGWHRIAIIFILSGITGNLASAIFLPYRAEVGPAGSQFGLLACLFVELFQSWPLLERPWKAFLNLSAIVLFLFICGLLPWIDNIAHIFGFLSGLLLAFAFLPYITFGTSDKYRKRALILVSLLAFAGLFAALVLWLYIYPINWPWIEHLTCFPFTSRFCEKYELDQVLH

B1: humanized antibody 16-B-07 (antibody, V domains shown)
VH: QVTLRESGPALVKPTQTLTLTCTFSGFSLSTFALGVGWIRQPPGKALEWLAHIWWDEDKYYNPALKSRLTISKDTSKNQVVLTITNMDPVDTATYYCARITTYYYGMDYWGQGTLVTVSS
VL: EIVMTQSPDFQSVTPKEKVTITCRASQSIGNHLHWYQQKPDASPKLLIKYASQSISGVPSRFSGSGSGTDFTLTINSLEAEDAATYFCQQSYQWPLTFGQGTKLEIK
notes: Tested as whole humanized antibody produced in CHO cells and detected with anti-human IgG; the general methods speak of human IgG1/Kappa; also called clone 16-B-07
B2: humanized antibody 16-B-03 (antibody, V domains shown)
VH: B1 VH with E57D
VL: B1 VL
notes: Tested as whole humanized antibody produced in CHO cells and detected with anti-human IgG; the general methods speak of human IgG1/Kappa; also called clone 16-B-03
B3: humanized antibody 16-B-05 (antibody, V domains shown)
VH: B1 VH
VL: B1 VL with Q93N
notes: Tested as whole humanized antibody produced in CHO cells and detected with anti-human IgG; the general methods speak of human IgG1/Kappa; The printed LCVD reads SRESGSG where the printed cDNA encodes SRFSGSG; also called clone 16-B-05
B4: humanized antibody 42-B-04 (antibody, V domains shown)
VH: QVTLRESGPALVKPTQTLTLTCTFSGFSLSTFGRGVGWIRQPPGKALEWLAHIWWDDEKYYNSALKSRLTISKDTSKNQVVLTITNMDPVDTATYYCARIQNYGSNYWYFDVWGQGTLVTVSS
VL: AIQLTQSPSSLSASVGDRVTITCRASSRISYMFWYQQKPGKAPKVLIYDTSNLASGVPSRFSGSGSGTDYTLTISSLQPEDFATYYCQQWNAYPLTFGQGTKLEIK
notes: Tested as whole humanized antibody produced in CHO cells and detected with anti-human IgG; the general methods speak of human IgG1/Kappa; also called clone 42-B-04
B5: humanized antibody 23-B-04 (antibody, V domains shown)
VH: B4 VH with R34M, Q101S, D111N
VL: B4 VL with R28S, I29V, F33Y
notes: Tested as whole humanized antibody produced in CHO cells and detected with anti-human IgG; the general methods speak of human IgG1/Kappa; also called clone 23-B-04
B6: humanized antibody 42-B-02 (antibody, V domains shown)
VH: B4 VH
VL: B4 VL with A92S
notes: Tested as whole humanized antibody from transient expression of heavy chain/kappa light chain pairs in CHO cells, detected with anti-human IgG; the general methods speak of human IgG1/Kappa; also called clone 42-B-02

How the values were obtained:
[1] = target: T1, dog iRhom1 full length wild type, …; assay: FACS on MEF-DKO-Dog-iR1-FL-WT-T7 cells
Protocol: In brief, immortalized MEF-DKO-EV control cells, MEF-DKO-rhesus-iR2-FL-WT-T7 cells, MEF-DKO-cyno-iR2-FL-WT-T7 cells, MEF-DKO-dog-iR2-FL-WT-T7 cells and MEF-DKO-rabbit-iR2-FL-WT-T7 cells, as well as their respective iRhom1 counterparts, were harvested with 10 mM EDTA in PBS, washed and resuspended in FACS buffer (PBS, 3% FBS, 0.05% sodium azide), and seeded in Nunc U-bottom 96-well plates (Thermo Fisher Scientific, USA) at approximately 3×10⁵ cells per well. To pellet cells and remove supernatants, the plates were centrifuged at 1,500 rpm and 4° C. for 3 minutes. For primary staining, cells were resuspended in 100 μl per well of either FACS buffer alone (controls), mouse monoclonal anti-T7 IgG (Merck Millipore, USA) at 3 μg/ml FACS buffer or the antibodies of the invention also at 3 μg/ml FACS buffer and incubated on ice for 1 hour. Afterwards, plates were centrifuged at 1,500 rpm and 4° C. for 3 minutes and washed twice with 200 μl per well of FACS buffer. For secondary staining of previous anti T7 staining, cells were spun down and resuspended in 100 μl per well of PE-conjugated goat anti-mouse IgG F(ab′)2 detection fragment (Dianova, Germany) diluted 1:100 in FACS buffer. For secondary staining of previous staining with humanized antibodies of invention, cells were spun down and resuspended in 100 μl per well of PE-conjugated goat anti-human IgG F(ab′)2 detection fragment (Dianova, Germany) diluted 1:100 in FACS buffer. Protected from light, the cell suspensions were incubated on ice for 1 hour. Plates were then centrifuged at 1,500 rpm and 4° C. for 3 minutes and washed three times with 200 μl per well of FACS buffer. Finally, cells were resuspended in 150 μl per well of FACS buffer and analyzed using a BD Accuri™ C6 Plus flow cytometer (Becton Dickinson, Germany).

endogenous human iRhom2 = target: T2, endogenous human iRhom2; assay: cell-based or functional assay

Binder | binding result [1] | percent inhibition of LPS-induced release of TNFα from PBMCs from healthy donors (ELISA, antibody 3 µg/ml) (endogenous human iRhom2) | percent inhibition of LPS-induced release of TNFα from THP-1 cells (ELISA, antibody 3 µg/ml) (endogenous human iRhom2) | percent inhibition of PMA-induced release of HB-EGF from PBMCs from healthy donors (ELISA, antibody 3 µg/ml) (endogenous human iRhom2) | percent inhibition of PMA-induced release of HB-EGF from THP-1 cells (ELISA, antibody 3 µg/ml) (endogenous human iRhom2) | percent inhibition of PMA-induced release of HB-EGF from U-937 cells (ELISA, antibody 3 µg/ml) (endogenous human iRhom2) | percent inhibition of PMA-induced release of IL-6R from PBMCs from healthy donors (ELISA, antibody 3 µg/ml) (endogenous human iRhom2) | percent inhibition of PMA-induced release of IL-6R from THP-1 cells (ELISA, antibody 3 µg/ml) (endogenous human iRhom2) | percent inhibition of PMA-induced release of IL-6R from U-937 cells (ELISA, antibody 3.33 µg/ml) (endogenous human iRhom2) | percent inhibition of PMA-induced release of TGFα from PC3 cells (ELISA, antibody 10 µg/ml) (endogenous human iRhom2) | percent inhibition of PMA-induced release of TNFα from U-937 cells (ELISA, antibody 3.33 µg/ml) (endogenous human iRhom2)
B1 | no binding (tested: 3 µg/ml) | 72.8% | 77.2% | 66.5% | 80.5% | 99.2% | 75.4% | 75.6% | 77.5% | 3.3% | 90.3%
B2 | no binding (tested: 3 µg/ml) | 74.2% | 75.1% | 69.7% | 80.2% | 99.2% | 75% | 75.6% | 79.6% | 15.9% | 89.8%
B3 | no binding (tested: 3 µg/ml) | 73.5% | 78.7% | 74.8% | 83% | 99.7% | 79% | 74% | 81.7% | 23.8% | 89%
B4 | no binding (tested: 3 µg/ml) | 68.5% | 76.1% | 66.7% | 86.2% | 99.4% | 78.4% | 71.6% | 82.4% | 19.5% | 87.9%
B5 | no binding (tested: 3 µg/ml) | 59.4% | 77.6% | 49.6% | 84.4% | 99.5% | 64.6% | 70.1% | 77.8% | 21.3% | 77.2%
B6 | no binding (tested: 3 µg/ml) | 64.3% | 75.2% | 59.2% | 81.2% | 98.8% | 73.4% | 68.5% | 78.3% | 6.4% | 85%
